Experimental data taken from patent US20220089722A1.

Target: CD3 on T cells (Jurkat T cells; PBMC-T cells)
Assay: flow cytometry on Jurkat T cells; protein purified on CH1 resin

Sequence of CD3 on T cells (Jurkat T cells; PBMC-T cells) (P07766 23-207): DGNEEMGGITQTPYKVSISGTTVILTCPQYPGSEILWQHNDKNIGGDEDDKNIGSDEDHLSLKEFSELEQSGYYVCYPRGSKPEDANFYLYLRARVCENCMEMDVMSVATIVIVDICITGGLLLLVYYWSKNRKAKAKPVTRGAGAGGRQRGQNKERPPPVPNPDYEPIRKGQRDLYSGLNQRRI

- Kd: 6.12 nM
B1: IgFD-36(anti-CD3) (antibody, human IgG1, kappa, V domains shown)
VH: EVQLVESGGGLVQPGGSLRLSCAASGFTFNTYAMNWVRQAPGKGLEWVARIRSKYNNYATYYADSVKDRFTISRDDSKNTLYLQMNSLRAEDTAVYYCVRHGNFGNSYVSWFAYWGQGTLVTVSS
VL: QAVVTQEPSLTVSPGGTVTLTCRSSTGAVTTSNYANWVQQKPDHLFRGLIGGTNKRAPGTPARFSGSLLGDKAALTISGAQPEDEAEYYCALWYSNLWVFGGGTKLTVLK
